Measurements reported in patent US10752675B2, “Compounds for treating the remyelination blockade in diseases associated with the expression of HERV-W envelope protein” (GENEURO S.A., priority 2012, dated 2020).
“Also recorded” adds a separate entry of the source.

Test system: MSRV-Env induced EAE in C57BL/6 mice
Test: EAE clinical score with intravenous MSRV-Env challenge, Example 3.B
Format: in vivo
From the text: Animals were weighed and clinically scored 5 days per week according to the following criteria: 0=no signs; 1=tail paralysis or hyper-reflex of hind limb(s) or unilateral hind limb weakness; 2=bilateral hind limb or forelimb weakness; 3=plus unilateral paralysis or major deficit; 4=complete hind limb or forelimb paralysis; 5=plus partial paralysis or major deficit of opposite limbs; 6=moribund or dead. These were adapted from standard criteria, in order to reflect the more rapid induction of brain and cervical cord lesions with this model.
When not specified, all materials and methods were as described for Example 3A.
All mice received three injections s.c. on the neck at DO, on the dorsal flank at D7 and D14. Here, mice from Group A were injected with 200 μg/mouse of MOG and IFA only, without Env, thus constituting a negative control group without EAE in the present series (ctrl −). The positive control group with untretated EAE in the present series is represented by Group B (ctrl +). Other groups were injected with 200 μg of MOG/mouse+MSRV-ENV (60 μg)+IFA, with treatments as indicated in the above summarized presentation. […]
For Groups G and H receiving DMF, we have previously determined the volume of daily water consumption by each mouse and it has been realized that (in our condition), each mouse consumed around 3.5 ml drinking water per day. […]

B1: GNbAC1: recombinant humanized anti-Env IgG4 monoclonal antibody comprising the CDRs of SEQ ID No. 1 to 6 (antibody, chains of the INN, looked up, V domains shown)
VH: QVQLVQSGAEVKKPGSSVKVSCKASGYTFTDYEMHWVRQAPGQGLEWIGAVAPETGGTAYNQKFKGRATITADKSTSTAYMELSSLRSEDTAVYYCTSTVVPFAYWGQGTLVTVSS
VL: QIQLTQSPSSLSASVGDRVTITCSASSSVSYMYWYQQKPGKAPKAWIYRTSNLASGVPSRFSGSGSGTDYTLTISSLQPEDFATYYCQQYQSLPLTFGGGTKVEIK
GNbAC1 200 μg at day 12, alone or with SMT (I.P. twice a week) or DMF (2 mg daily in drinking water)
  EAE clinical score after iv MSRV-Env challenge (20 μg): transient clinical impairment
GNbAC1 500 μg at day 12, alone or with SMT or DMF (2 mg daily in drinking water)
  EAE clinical score after iv MSRV-Env challenge (20 μg): very efficient in conferring resistance; also recorded: best clinical efficiency
